Measured values taken from US5279956A, “Activated protein C polypeptides and anti-peptide antibodies, diagnostic methods and systems for inhibiting activated protein C” (The Scripps Research Institute, priority 1991, dated 1994).

Tests used:
[1] = target: T1, APC (Homo sapiens, UniProt P04070); assay: Inhibition of APC by recombinant mutant (Arg358)-α1-antitrypsin, time course; assay type: biochemical; settings: 18 nM APC and 100 nM α1-AT
T1 construct: begins at amino acid residue position 158 and ends at 419; The light chain is 155 amino acid residues in length; tissue Factor IX concentrate from Immuno AG, Vienna; thrombin from Enzyme Research Laboratories
T1 sequence (P04070 212-461): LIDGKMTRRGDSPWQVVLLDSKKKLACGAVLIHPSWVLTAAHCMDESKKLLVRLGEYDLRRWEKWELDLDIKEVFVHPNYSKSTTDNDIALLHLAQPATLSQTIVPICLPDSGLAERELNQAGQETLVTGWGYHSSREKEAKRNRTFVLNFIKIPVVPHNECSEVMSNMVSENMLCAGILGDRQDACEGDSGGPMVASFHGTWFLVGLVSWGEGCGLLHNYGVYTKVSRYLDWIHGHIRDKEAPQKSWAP
T1 sequence (P04070 43-197): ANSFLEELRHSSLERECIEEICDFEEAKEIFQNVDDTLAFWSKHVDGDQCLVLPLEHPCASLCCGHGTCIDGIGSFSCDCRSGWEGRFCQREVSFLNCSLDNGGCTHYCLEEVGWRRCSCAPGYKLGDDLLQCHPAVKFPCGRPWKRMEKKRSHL
Protocol: Since the number of amino acid residues involved in protease-protease inhibitor complexes is likely to be higher than the number of residues of APC involved in the cleavage of a small chromogenic substrate such as S-2366, the effect of peptide-(390-404) and peptide-(317-331) on the time course of inhibition of APC by a larger pseudosubstrate, recombinant mutant (Arg^358)-α1 -antitrypsin (α1 -AT) was evaluated. […] Heeb et al., J. Biol. Chem. 265:2365-2369 (1990).
Kinetic studies of inhibition of APC were performed with the higher affinity mutant α1 -AT pseudo-substrate. […] The change in absorbance was measured over time as described in the amidolytic assay. […]
Since the number of amino acid residues involved in protease-protease inhibitor complexes is likely to be higher than the number of residues of APC involved in the cleavage of a small chromogenic substrate such as S-2366, the effect of anti-(390-404) antibody on the time course of inhibition of APC by a larger pseudo-substrate, such as recombinant mutant (Arg^358)-α1 -AT was evaluated. […] The change in absorbance was measured over time as described in the amidolytic assay. […]

[2] = target: T1, APC; settings: Heeb et al. 1990; cited from earlier work

calculated half-life for APC [1]: 2 min
Substance: recombinant (Arg^358)α1 -AT: recombinant mutant α1-antitrypsin with Met358 substituted by Arg, pseudosubstrate inhibitor of APC (Transgene)
increase in the association rate for APC by substitution of Met358 by Arg [2]: over 4400 fold
